B1: Azoarcus group I ribozyme (parent)
chain: GUGCCUUGCGCCGGGAAACCACGCAAGGGAUGGUGUCAAAUUCGGCGAAACCUAAGCGCCCGCCCGGGCGUAUGGCAACGCCGAGCCAAGCUUCGGCGCCUGCGCCGAUGAAGGUGUAGAGACUAGACGGCACCCACCUAAGGCAAACGCUAUGGUGAAGGCAUAGUCCAGGGAGUGGCGAAAGUCACACAAACCGG

Variants of: B1
Assay: reverse-splicing fitness (ratio to wild type); higher = more active; in vitro selection; Mg2+ level not given
How it was run: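 An in vitro group I ribozyme library with randomized positions was T7-transcribed and gel-purified. In triplicate, 10 pmol RNA in EPPS pH 7.5 was reacted with 50 pmoles of a 30-nt RNA substrate for 1 h at 37 °C across several added MgCl2 levels (1–48 mM), then stopped with EDTA. Products were reverse transcribed from a substrate-complementary primer, PCR-amplified and sequenced (HiSeq 4000). Fitness is a variant's read proportion after selection over that before, normalised to wild type.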

Row | Variant | reverse-splicing fitness
1 | C82G A145C C150U C169U U176G | 0.00436
2 | C82G A145C C150U C169U U176A | 0.0142
3 | C82G A145C C150U C169U U176C | 0.00905
4 | C82G A120U C150U U176G | 0.0119
5 | C82G A120U C150U U176A | 0.0366
6 | C82G A120U C150U U176C | 0.058
7 | C82G A120U C150A C169A U176C | 0.0035
8 | C82G A120U C150A C169A U176A | 0.00432
9 | C82G A120U C150A C169A U176G | 0.00205
10 | C82G A120U C169U U176C | 0.00518
11 | C82G A120U C169U U176G | 0.00154
12 | C82G A120U C169U U176A | 0.00406
13 | C82G A145G C150U C169G U176A | 0.0145
14 | C82G A145G C150U C169G U176G | 0.00499
15 | C82G A145G C150U C169G U176C | 0.0184
16 | C82G A145G C150U | 0.401
17 | C82G A145G C150G | 0.05
18 | C82G A145G C150A | 0.0607
19 | C82G A145C C150A U176A | 0.0237
20 | C82G A145C C150A U176C | 0.0216
21 | C82G A145C C150A U176G | 0.0117
22 | C82G A145G U176G | 0.133
23 | C82G A145G U176C | 0.374
24 | C82G A145G U176A | 0.341

Row | Variant | reverse-splicing fitness
25 | C82G A145U C150U C169U U176G | 0.00492
26 | C82G A145U C150U C169U U176C | 0.0121
27 | C82G A145U C150U C169U U176A | 0.0118
28 | C82G C150G U176A | 0.0255
29 | C82G C150G U176G | 0.00797
30 | C82G C150G U176C | 0.0287
31 | C82G A145G C150G C169A | 0.00944
32 | C82G A145G C150G C169G | 0.00848
33 | C82G A145G C150G C169U | 0.011
34 | C82G A145U C150A C169U U176C | 0.013
35 | C82G A145U C150A C169U U176G | 0.00507
36 | C82G A145U C150A C169U U176A | 0.0124
37 | C82G A145G C150A C169U U176G | 0.00552
38 | C82G A145G C150A C169U U176C | 0.0141
39 | C82G A145G C150A C169U U176A | 0.0137
40 | C82G A145U C150U C169G U176G | 0.00545
41 | C82G A145U C150U C169G U176A | 0.0117
42 | C82G A145U C150U C169G U176C | 0.0131
43 | C82G A145C C150U C169U | 0.00975
44 | C82G A145C C150U C169A | 0.00797
45 | C82G A145C C150U C169G | 0.00731
46 | C82G A145U C150U U176C | 0.234
47 | C82G A145U C150U U176G | 0.0935
48 | C82G A145U C150U U176A | 0.236

Row | Variant | reverse-splicing fitness
49 | C82G A120U C150G C169U | 0.00456
50 | C82G A120U C150G C169A | 0.00734
51 | C82G A120U C150G C169G | 0.0053
52 | C82G C150A | 0.0416
53 | C82G C150G | 0.0318
54 | C82G C150U | 0.252
55 | C82G A120U A145U C169U U176A | 0.00334
56 | C82G A120U A145U C169U U176C | 0.00402
57 | C82G A120U A145U C169U U176G | 0.00148
58 | C82G C150G C169G U176A | 0.00727
59 | C82G C150G C169G U176G | 0.00511
60 | C82G C150G C169G U176C | 0.00598
61 | C82G A145U C150A C169G | 0.00669
62 | C82G A145U C150A C169U | 0.00756
63 | C82G A145U C150A C169A | 0.00972
64 | C82G A145U C150A U176A | 0.0428
65 | C82G A145U C150A U176G | 0.0186
66 | C82G A145U C150A U176C | 0.0384
67 | C82G A145G C169A U176C | 0.0249
68 | C82G A145G C169A U176G | 0.00413
69 | C82G A145G C169A U176A | 0.0187
70 | C82G A145C C150G C169A | 0.00875
71 | C82G A145C C150G C169G | 0.00714
72 | C82G A145C C150G C169U | 0.01

Row | Variant | reverse-splicing fitness
73 | C82G C169G U176C | 0.0235
74 | C82G C169G U176A | 0.0155
75 | C82G C169G U176G | 0.00418
76 | C82G A145G C169U U176G | 0.00412
77 | C82G A145G C169U U176A | 0.0138
78 | C82G A145G C169U U176C | 0.0155
79 | C82G A145C C150G U176G | 0.0106
80 | C82G A145C C150G U176C | 0.0389
81 | C82G A145C C150G U176A | 0.0337
82 | C82G A145G C150U C169U U176C | 0.015
83 | C82G A145G C150U C169U U176G | 0.0045
84 | C82G A145G C150U C169U U176A | 0.0145
85 | C82G A145G C150G U176A | 0.0343
86 | C82G A145G C150G U176G | 0.0127
87 | C82G A145G C150G U176C | 0.0452
88 | C82G A145C C150A C169U U176G | 0.00493
89 | C82G A145C C150A C169U U176A | 0.0123
90 | C82G A145C C150A C169U U176C | 0.00742
91 | C82G A145C C150U U176C | 0.0809
92 | C82G A145C C150U U176G | 0.0373
93 | C82G A145C C150U U176A | 0.0881
94 | C82G A145U C150G C169A | 0.00874
95 | C82G A145U C150G C169G | 0.00774
96 | C82G A145U C150G C169U | 0.0092

Row | Variant | reverse-splicing fitness
97 | C82G A145G C150U C169A U176C | 0.0162
98 | C82G A145G C150U C169A U176A | 0.0169
99 | C82G A145G C150U C169A U176G | 0.00619
100 | C82G C150U C169U U176C | 0.0159
101 | C82G C150U C169U U176A | 0.0142
102 | C82G C150U C169U U176G | 0.00459
103 | C82G A145G C150U U176A | 0.264
104 | C82G A145G C150U U176C | 0.291
105 | C82G A145G C150U U176G | 0.106
106 | C82G A145U C150U C169A U176A | 0.0114
107 | C82G A145U C150U C169A U176G | 0.00466
108 | C82G A145U C150U C169A U176C | 0.00851
109 | C82G A120U A145U U176C | 0.116
110 | C82G A120U A145U U176A | 0.0782
111 | C82G A120U A145U U176G | 0.02
112 | C82G A145U C150A | 0.0405
113 | C82G A145U C150G | 0.0473
114 | C82G A145U C150U | 0.321
115 | C82G C150A C169G U176A | 0.0179
116 | C82G C150A C169G U176G | 0.00539
117 | C82G C150A C169G U176C | 0.0214
118 | C82G A145C C150G C169U U176A | 0.0101
119 | C82G A145C C150G C169U U176G | 0.00486
120 | C82G A145C C150G C169U U176C | 0.00852

Row | Variant | reverse-splicing fitness
121 | C82G C169A U176C | 0.0165
122 | C82G C169A U176G | 0.00463
123 | C82G C169A U176A | 0.0146
124 | C82G A145C C150G C169A U176A | 0.00807
125 | C82G A145C C150G C169A U176C | 0.00634
126 | C82G A145C C150G C169A U176G | 0.00487
127 | C82G A120U C169A | 0.00257
128 | C82G A120U C169G | 0.00666
129 | C82G A120U C169U | 0.00719
130 | C82G A120U C150G U176A | 0.0062
131 | C82G A120U C150G U176G | 0.00297
132 | C82G A120U C150G U176C | 0.0103
133 | C82G C169U U176G | 0.00463
134 | C82G C169U U176C | 0.0165
135 | C82G C169U U176A | 0.0135
136 | C82G C150U U176C | 0.206
137 | C82G C150U U176G | 0.0728
138 | C82G C150U U176A | 0.181
139 | C82G C150A U176A | 0.0422
140 | C82G C150A U176C | 0.0447
141 | C82G C150A U176G | 0.0188
142 | C82G A145G C150U C169U | 0.0159
143 | C82G A145G C150U C169A | 0.0118
144 | C82G A145G C150U C169G | 0.012

Row | Variant | reverse-splicing fitness
145 | C82G A120U C150G C169U U176G | 0.0022
146 | C82G A120U C150G C169U U176A | 0.00369
147 | C82G A120U C150G C169U U176C | 0.00347
148 | C82G A120U C150G C169A U176C | 0.00402
149 | C82G A120U C150G C169A U176G | 0.00278
150 | C82G A120U C150G C169A U176A | 0.00571
151 | C82G A120U C150U C169A | 0.00461
152 | C82G A120U C150U C169U | 0.00575
153 | C82G A120U C150U C169G | 0.00527
154 | C82G A120U A145U C169G U176C | 0.00292
155 | C82G A120U A145U C169G U176A | 0.00234
156 | C82G A120U A145U C169G U176G | 0.00119
157 | C82G A145U U176G | 0.175
158 | C82G A145U U176A | 0.395
159 | C82G A145U U176C | 0.405
160 | C82G C150U C169A U176G | 0.00526
161 | C82G C150U C169A U176C | 0.0132
162 | C82G C150U C169A U176A | 0.0176
163 | C82G A120U A145U C169G | 0.00637
164 | C82G A120U A145U C169A | 0.00221
165 | C82G A120U A145U C169U | 0.00672
166 | C82G A145U C150G C169U U176G | 0.0049
167 | C82G A145U C150G C169U U176C | 0.0119
